Results from the supplement of paper PMC9876800.

Test system: peptide library, one residue held at a place counted from the S/T acceptor
Assay: relative phosphorylation of the sub-library (ratio to the mean residue at this position); Pediculus humanus corporis; higher = residue favoured
How it was run: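 Human or orthologue kinase constructs, purified and recombinant, were incubated under kinase-specific conditions in 384-well plates with biotinylated degenerate peptide sub-libraries. Each sub-library fixed one residue at one position around a central Ser/Thr. Incubations lasted 90 min with peptides at 50 μM and 50 μM ATP spiked with γ-32P-ATP, after which spots on streptavidin membranes were phosphorimaged and quantified by densitometry. Relative sub-library phosphorylation is a ratio to the mean residue at that position.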

Sequence of PINK1, construct: aa126-end (E0W1I1 126-575, looked up): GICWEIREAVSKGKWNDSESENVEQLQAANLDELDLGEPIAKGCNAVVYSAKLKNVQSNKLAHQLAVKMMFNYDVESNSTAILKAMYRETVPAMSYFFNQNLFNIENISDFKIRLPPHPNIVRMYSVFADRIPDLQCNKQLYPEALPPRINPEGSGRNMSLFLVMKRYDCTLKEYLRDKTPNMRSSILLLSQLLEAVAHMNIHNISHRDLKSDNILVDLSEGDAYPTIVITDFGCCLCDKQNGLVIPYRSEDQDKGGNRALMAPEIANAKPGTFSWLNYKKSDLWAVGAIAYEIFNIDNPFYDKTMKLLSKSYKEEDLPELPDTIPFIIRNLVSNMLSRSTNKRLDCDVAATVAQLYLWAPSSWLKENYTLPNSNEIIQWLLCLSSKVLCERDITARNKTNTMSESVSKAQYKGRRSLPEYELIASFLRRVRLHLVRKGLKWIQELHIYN

Substance: PINK1, construct: aa126-end (from UniProt E0W1I1)
- relative phosphorylation (A fixed, at +1): 0.566
- relative phosphorylation (A fixed, at +2): 1.09
- relative phosphorylation (A fixed, at +3): 0.757
- relative phosphorylation (A fixed, at +4): 0.761
- relative phosphorylation (A fixed, at -1): 1.01
- relative phosphorylation (A fixed, at -2): 0.871
- relative phosphorylation (A fixed, at -3): 0.867
- relative phosphorylation (A fixed, at -4): 0.921
- relative phosphorylation (A fixed, at -5): 1.04
- relative phosphorylation (D fixed, at +1): 0.454
- relative phosphorylation (D fixed, at +2): 0.704
- relative phosphorylation (D fixed, at +3): 0.585
- relative phosphorylation (D fixed, at +4): 0.547
- relative phosphorylation (D fixed, at -1): 0.982
- relative phosphorylation (D fixed, at -2): 0.416
- relative phosphorylation (D fixed, at -3): 1.11
- relative phosphorylation (D fixed, at -4): 1.49
- relative phosphorylation (D fixed, at -5): 1.67
- relative phosphorylation (E fixed, at +1): 0.292
- relative phosphorylation (E fixed, at +2): 0.655
- relative phosphorylation (E fixed, at +3): 0.509
- relative phosphorylation (E fixed, at +4): 0.54
- relative phosphorylation (E fixed, at -1): 1.22
- relative phosphorylation (E fixed, at -2): 0.781
- relative phosphorylation (E fixed, at -3): 0.81
- relative phosphorylation (E fixed, at -4): 1.81
- relative phosphorylation (E fixed, at -5): 1.48
- relative phosphorylation (F fixed, at +1): 0.496
- relative phosphorylation (F fixed, at +2): 1.06
- relative phosphorylation (F fixed, at +3): 1.11
- relative phosphorylation (F fixed, at +4): 0.954
- relative phosphorylation (F fixed, at -1): 0.612
- relative phosphorylation (F fixed, at -2): 1.25
- relative phosphorylation (F fixed, at -3): 1.43
- relative phosphorylation (F fixed, at -4): 1.01
- relative phosphorylation (F fixed, at -5): 1.21
- relative phosphorylation (G fixed, at +1): 1.94
- relative phosphorylation (G fixed, at +2): 0.875
- relative phosphorylation (G fixed, at +3): 0.873
- relative phosphorylation (G fixed, at +4): 1.02
- relative phosphorylation (G fixed, at -1): 0.812
- relative phosphorylation (G fixed, at -2): 0.416
- relative phosphorylation (G fixed, at -3): 0.579
- relative phosphorylation (G fixed, at -4): 0.946
- relative phosphorylation (G fixed, at -5): 0.806
- relative phosphorylation (H fixed, at +1): 0.954
- relative phosphorylation (H fixed, at +2): 1.11
- relative phosphorylation (H fixed, at +3): 1.15
- relative phosphorylation (H fixed, at +4): 1.04
- relative phosphorylation (H fixed, at -1): 0.945
- relative phosphorylation (H fixed, at -2): 0.84
- relative phosphorylation (H fixed, at -3): 0.964
- relative phosphorylation (H fixed, at -4): 1.25
- relative phosphorylation (H fixed, at -5): 1.09
- relative phosphorylation (I fixed, at +1): 0.55
- relative phosphorylation (I fixed, at +2): 0.712
- relative phosphorylation (I fixed, at +3): 0.657
- relative phosphorylation (I fixed, at +4): 0.789
- relative phosphorylation (I fixed, at -1): 0.604
- relative phosphorylation (I fixed, at -2): 1.55
- relative phosphorylation (I fixed, at -3): 0.774
- relative phosphorylation (I fixed, at -4): 0.696
- relative phosphorylation (I fixed, at -5): 0.863
- relative phosphorylation (K fixed, at +1): 1.59
- relative phosphorylation (K fixed, at +2): 1
- relative phosphorylation (K fixed, at +3): 1.41
- relative phosphorylation (K fixed, at +4): 1.4
- relative phosphorylation (K fixed, at -1): 0.952
- relative phosphorylation (K fixed, at -2): 0.828
- relative phosphorylation (K fixed, at -3): 0.387
- relative phosphorylation (K fixed, at -4): 0.596
- relative phosphorylation (K fixed, at -5): 0.754
- relative phosphorylation (L fixed, at +1): 0.517
- relative phosphorylation (L fixed, at +2): 0.76
- relative phosphorylation (L fixed, at +3): 0.676
- relative phosphorylation (L fixed, at +4): 0.802
- relative phosphorylation (L fixed, at -1): 1.14
- relative phosphorylation (L fixed, at -2): 0.907
- relative phosphorylation (L fixed, at -3): 2.14
- relative phosphorylation (L fixed, at -4): 0.739
- relative phosphorylation (L fixed, at -5): 0.889
- relative phosphorylation (M fixed, at +1): 0.626
- relative phosphorylation (M fixed, at +2): 0.982
- relative phosphorylation (M fixed, at +3): 0.832
- relative phosphorylation (M fixed, at +4): 0.902
- relative phosphorylation (M fixed, at -1): 1.23
- relative phosphorylation (M fixed, at -2): 2.75
- relative phosphorylation (M fixed, at -3): 1.57
- relative phosphorylation (M fixed, at -4): 0.804
- relative phosphorylation (M fixed, at -5): 0.923
- relative phosphorylation (N fixed, at +1): 2.33
- relative phosphorylation (N fixed, at +2): 1.02
- relative phosphorylation (N fixed, at +3): 1.17
- relative phosphorylation (N fixed, at +4): 0.858
- relative phosphorylation (N fixed, at -1): 1.52
- relative phosphorylation (N fixed, at -2): 0.589
- relative phosphorylation (N fixed, at -3): 0.694
- relative phosphorylation (N fixed, at -4): 1.18
- relative phosphorylation (N fixed, at -5): 0.888
- relative phosphorylation (P fixed, at +1): 2.36
- relative phosphorylation (P fixed, at +2): 1.41
- relative phosphorylation (P fixed, at +3): 1.06
- relative phosphorylation (P fixed, at +4): 1.08
- relative phosphorylation (P fixed, at -1): 0.419
- relative phosphorylation (P fixed, at -2): 0.316
- relative phosphorylation (P fixed, at -3): 0.429
- relative phosphorylation (P fixed, at -4): 0.63
- relative phosphorylation (P fixed, at -5): 0.878
- relative phosphorylation (Q fixed, at +1): 0.786
- relative phosphorylation (Q fixed, at +2): 1
- relative phosphorylation (Q fixed, at +3): 0.957
- relative phosphorylation (Q fixed, at +4): 0.983
- relative phosphorylation (Q fixed, at -1): 1.72
- relative phosphorylation (Q fixed, at -2): 1.06
- relative phosphorylation (Q fixed, at -3): 0.609
- relative phosphorylation (Q fixed, at -4): 0.831
- relative phosphorylation (Q fixed, at -5): 0.733
- relative phosphorylation (R fixed, at +1): 2.05
- relative phosphorylation (R fixed, at +2): 1.57
- relative phosphorylation (R fixed, at +3): 2.21
- relative phosphorylation (R fixed, at +4): 2.15
- relative phosphorylation (R fixed, at -1): 1.58
- relative phosphorylation (R fixed, at -2): 1.02
- relative phosphorylation (R fixed, at -3): 0.815
- relative phosphorylation (R fixed, at -4): 0.676
- relative phosphorylation (R fixed, at -5): 0.75
- relative phosphorylation (V fixed, at +1): 0.474
- relative phosphorylation (V fixed, at +2): 0.805
- relative phosphorylation (V fixed, at +3): 0.737
- relative phosphorylation (V fixed, at +4): 0.692
- relative phosphorylation (V fixed, at -1): 0.716
- relative phosphorylation (V fixed, at -2): 0.838
- relative phosphorylation (V fixed, at -3): 0.441
- relative phosphorylation (V fixed, at -4): 0.595
- relative phosphorylation (V fixed, at -5): 0.806
- relative phosphorylation (W fixed, at +1): 0.455
- relative phosphorylation (W fixed, at +2): 1.03
- relative phosphorylation (W fixed, at +3): 1.14
- relative phosphorylation (W fixed, at +4): 1.47
- relative phosphorylation (W fixed, at -1): 0.772
- relative phosphorylation (W fixed, at -2): 1.55
- relative phosphorylation (W fixed, at -3): 1.74
- relative phosphorylation (W fixed, at -4): 1.48
- relative phosphorylation (W fixed, at -5): 1.17
- relative phosphorylation (Y fixed, at +1): 0.548
- relative phosphorylation (Y fixed, at +2): 1.2
- relative phosphorylation (Y fixed, at +3): 1.17
- relative phosphorylation (Y fixed, at +4): 1.01
- relative phosphorylation (Y fixed, at -1): 0.775
- relative phosphorylation (Y fixed, at -2): 1.03
- relative phosphorylation (Y fixed, at -3): 1.65
- relative phosphorylation (Y fixed, at -4): 1.35
- relative phosphorylation (Y fixed, at -5): 1.04
- relative phosphorylation (pThr fixed, at +1): 0.442
- relative phosphorylation (pThr fixed, at +2): 0.775
- relative phosphorylation (pThr fixed, at +3): 0.7
- relative phosphorylation (pThr fixed, at +4): 0.556
- relative phosphorylation (pThr fixed, at -1): 0.306
- relative phosphorylation (pThr fixed, at -2): 0.5
- relative phosphorylation (pThr fixed, at -3): 0.537
- relative phosphorylation (pThr fixed, at -4): 1.01
- relative phosphorylation (pThr fixed, at -5): 1.67
- relative phosphorylation (pTyr fixed, at +1): 0.458
- relative phosphorylation (pTyr fixed, at +2): 1.66
- relative phosphorylation (pTyr fixed, at +3): 0.834
- relative phosphorylation (pTyr fixed, at +4): 0.71
- relative phosphorylation (pTyr fixed, at -1): 1.09
- relative phosphorylation (pTyr fixed, at -2): 1.06
- relative phosphorylation (pTyr fixed, at -3): 3.15
- relative phosphorylation (pTyr fixed, at -4): 1.66
- relative phosphorylation (pTyr fixed, at -5): 1.26
